Here are results for one substance from publication doi:10.1101/2020.07.21.214338.

Assay in all cases: native gel or EMSA
The target in assay [1] is 209-bp nucleosome core particle (human | Xenopus laevis).
In assay [2] the target is 147-bp nucleosome core particle (human | Xenopus laevis).
For assay [3], the target named is 12x nucleosome array (human | Xenopus laevis).

Broadly, the Kd is the equilibrium constant for the complex coming apart. A high value points to a looser complex. Consider CBP core-ZZ-TAZ2 (domain or fragment), for which the Kd in assay [1] was 540 nM; in assay [2], 1000 nM; in assay [3], 309 nM.
